Where no end group is shown, it is not given here. [ ]: non-standard residue; d: D form. Aib = CC(C)(N)C(=O)O

These results are taken from patent publication US20140162945A1 (BEIJING HANMI PHARMACEUTICAL, published 2014).

Holding throughout (test): cell-based or functional assay
Test [1] addresses T1, human GLP-1 receptor (human, UniProt P43220 24-463).
The target of test [2] is T2, human GIP receptor (human, UniProt P48546 22-466).
T2 sequence (looked up): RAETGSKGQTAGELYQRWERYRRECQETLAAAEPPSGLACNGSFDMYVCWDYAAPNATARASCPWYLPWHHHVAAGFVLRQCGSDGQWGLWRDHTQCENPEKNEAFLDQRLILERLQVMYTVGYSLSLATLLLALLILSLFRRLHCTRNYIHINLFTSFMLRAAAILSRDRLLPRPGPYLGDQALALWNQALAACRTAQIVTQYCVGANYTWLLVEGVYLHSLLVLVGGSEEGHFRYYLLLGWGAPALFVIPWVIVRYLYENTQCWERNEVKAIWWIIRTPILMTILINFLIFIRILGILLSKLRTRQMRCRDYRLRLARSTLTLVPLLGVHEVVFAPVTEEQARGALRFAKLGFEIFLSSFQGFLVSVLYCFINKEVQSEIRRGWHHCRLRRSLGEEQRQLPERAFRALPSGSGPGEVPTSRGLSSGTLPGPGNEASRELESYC

Test [3] deals with T1, human GLP-1 receptor. The source holds these as a separate data set.
Test [4] addresses T2, human GIP receptor. This is another data set of the same source.

T1 sequence (P43220 24-463): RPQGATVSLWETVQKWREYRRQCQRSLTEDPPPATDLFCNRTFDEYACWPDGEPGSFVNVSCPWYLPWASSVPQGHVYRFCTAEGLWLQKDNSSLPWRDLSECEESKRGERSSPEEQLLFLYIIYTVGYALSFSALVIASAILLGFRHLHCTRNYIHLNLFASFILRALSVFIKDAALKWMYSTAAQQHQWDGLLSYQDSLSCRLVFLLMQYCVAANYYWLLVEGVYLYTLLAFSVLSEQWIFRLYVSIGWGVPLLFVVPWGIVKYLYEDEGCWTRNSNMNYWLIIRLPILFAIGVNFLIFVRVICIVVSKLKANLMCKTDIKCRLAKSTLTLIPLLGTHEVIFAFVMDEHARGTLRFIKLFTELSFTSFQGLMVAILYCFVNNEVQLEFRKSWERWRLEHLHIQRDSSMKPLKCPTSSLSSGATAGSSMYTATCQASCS

B1: Analog 023 (peptide)
peptide: Y[Aib]EGTFTSDYSIYMEKEAVREFIAWLVKG-NH2
modifications: N-terminus assumed
SMILES: CC[C@H](C)[C@H](NC(=O)[C@H](Cc1ccccc1)NC(=O)[C@H](CCC(=O)O)NC(=O)[C@H](CCCNC(=N)N)NC(=O)[C@@H](NC(=O)[C@H](C)NC(=O)[C@H](CCC(=O)O)NC(=O)[C@H](CCCCN)NC(=O)[C@H](CCC(=O)O)NC(=O)[C@H](CCSC)NC(=O)[C@H](Cc1ccc(O)cc1)NC(=O)[C@@H](NC(=O)[C@H](CO)NC(=O)[C@H](Cc1ccc(O)cc1)NC(=O)[C@H](CC(=O)O)NC(=O)[C@H](CO)NC(=O)[C@@H](NC(=O)[C@H](Cc1ccccc1)NC(=O)[C@@H](NC(=O)CNC(=O)[C@H](CCC(=O)O)NC(=O)C(C)(C)NC(=O)[C@@H](N)Cc1ccc(O)cc1)[C@@H](C)O)[C@@H](C)O)[C@@H](C)CC)C(C)C)C(=O)N[C@@H](C)C(=O)N[C@@H](Cc1c[nH]c2ccccc12)C(=O)N[C@@H](CC(C)C)C(=O)N[C@H](C(=O)N[C@@H](CCCCN)C(=O)NCC(N)=O)C(C)C
Regarding B1, the “EC50, GLP-1R cAMP induction” value in test [1] is 1.28 nM. The “EC50, GIPR cAMP induction” value in test [2] is 0.088 nM. Also, in test [3], the “EC50, GLP-1 Receptor cAMP induction” value turned out to be 1.28 nM and the “Relative Potency, GLP-1 Receptor” value came to 75%. Also, in test [4], the “EC50, GIP Receptor cAMP induction” value worked out at 0.088 nM and the “Relative Potency, GIP Receptor” value was 107%.

B2: Analog 025 (peptide)
peptide: Y[Aib]EGTFTSDYSIYMEKQAAKEFIAWLVKG-NH2
modifications: N-terminus assumed
SMILES: CC[C@H](C)[C@H](NC(=O)[C@H](Cc1ccccc1)NC(=O)[C@H](CCC(=O)O)NC(=O)[C@H](CCCCN)NC(=O)[C@H](C)NC(=O)[C@H](C)NC(=O)[C@H](CCC(N)=O)NC(=O)[C@H](CCCCN)NC(=O)[C@H](CCC(=O)O)NC(=O)[C@H](CCSC)NC(=O)[C@H](Cc1ccc(O)cc1)NC(=O)[C@@H](NC(=O)[C@H](CO)NC(=O)[C@H](Cc1ccc(O)cc1)NC(=O)[C@H](CC(=O)O)NC(=O)[C@H](CO)NC(=O)[C@@H](NC(=O)[C@H](Cc1ccccc1)NC(=O)[C@@H](NC(=O)CNC(=O)[C@H](CCC(=O)O)NC(=O)C(C)(C)NC(=O)[C@@H](N)Cc1ccc(O)cc1)[C@@H](C)O)[C@@H](C)O)[C@@H](C)CC)C(=O)N[C@@H](C)C(=O)N[C@@H](Cc1c[nH]c2ccccc12)C(=O)N[C@@H](CC(C)C)C(=O)N[C@H](C(=O)N[C@@H](CCCCN)C(=O)NCC(N)=O)C(C)C
Take B2: the “EC50, GLP-1R cAMP induction” value in test [1] worked out at 0.837 nM. For the same molecule, the “EC50, GIPR cAMP induction” value in test [2] stood at 1.5 nM. Also, in test [3], the “EC50, GLP-1 Receptor cAMP induction” value worked out at 0.837 nM and the “Relative Potency, GLP-1 Receptor” value amounted to 131%. Also, in test [4], the “EC50, GIP Receptor cAMP induction” value came to 1.5 nM and the “Relative Potency, GIP Receptor” value was 33.3%.
